The results in this text go back to patent publication US20230192834A1.

For assay [1], the target named is TGFβ1 (R&D Systems). As to the kind of experiment: cell-based or functional assay.
In assay [2] the target is T1, TGFβ2 (R&D Systems).
T1 sequence (P61812 303-414, species assumed, looked up): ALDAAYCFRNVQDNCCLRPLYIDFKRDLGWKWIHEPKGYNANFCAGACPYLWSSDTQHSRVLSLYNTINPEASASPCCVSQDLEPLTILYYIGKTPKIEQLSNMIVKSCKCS
As to the kind of experiment: cell-based or functional assay.

The target in assay [3] is T2, TGFβ3 (R&D Systems).
T2 sequence (P10600 301-412, species assumed, looked up): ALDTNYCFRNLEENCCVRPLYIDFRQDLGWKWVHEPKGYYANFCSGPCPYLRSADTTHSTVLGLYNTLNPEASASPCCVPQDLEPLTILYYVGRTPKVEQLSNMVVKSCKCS
As to the kind of experiment: cell-based or functional assay.

The target of assay [4] is TGFβ1 (R&D Systems). As to the kind of experiment: SPR (Biacore T200), TGFβ amine-coupled to chip, 1:1 fit.
In assay [5] the target is T1, TGFβ2 (R&D Systems). The assay is described as above.
For assay [6], the target named is T2, TGFβ3 (R&D Systems). The assay is described as above.

By Kd is commonly meant the concentration at which binding is half-saturated. The low end stands for tighter binding, the high end for weaker binding.

Sequence of TGFβ1 (R&D Systems) (P01137 279-390): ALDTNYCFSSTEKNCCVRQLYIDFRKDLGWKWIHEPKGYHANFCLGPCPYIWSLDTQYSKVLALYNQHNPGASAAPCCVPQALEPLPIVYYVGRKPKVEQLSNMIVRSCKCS

B1: Felinized anti-TGFβ1,2,3 antibody VH2.1 - VL3 (antibody, V domains shown)
VH: QVLLVQSGADVRKPGASVKIFCKASGYTFTSNVISWVRQTPAQGFEWMGGVIPIVDIANYAQRFKGRLVLTADTSTNTAYMELRSLKSADTAVYYCASTLGLVLDAMDYWGQGSLVTVSS
VL: EIQMTQSPSSLSASPGDRVTITCRASQSLGSSYLAWYQQKPGKVPKLLIYGASSRAPGVPSRFSGSGSGTDFTLTISSLEPEDAATYYCQQYADSPITFGQGTKLEIKR
Regarding B1, in assay [1], the TGFb1 IC50 (SMAD3 phosphorylation in CMVICs, AlphaLISA) was 0.597 µg/mL. Moreover, the TGFb2 IC50 (SMAD3 phosphorylation in CMVICs, AlphaLISA) in assay [2] was 0.277 µg/mL. The molecule also yielded a TGFb3 IC50 (SMAD3 phosphorylation in CMVICs, AlphaLISA) in assay [3] of 0.132 µg/mL. The Kd came out at 2.89 nM in assay [4], 1.91 nM in assay [5] and 2.6 nM in assay [6].

B2: Felinized anti-TGFβ1,2,3 antibody VH6.1 - VL3 (antibody, V domains shown)
VH: QVLLVQSGAEVRTPGASVKIFCKASGYGFTSNVISWVRQSPAQGLEWMGGVIPIVDIANYAQRFKGRLTLTADTSTDTAYMELSSLRSADTAMYYCASTLGLVLDAMDYWGQGTLVTVSS
VL: EIQMTQSPSSLSASPGDRVTITCRASQSLGSSYLAWYQQKPGKVPKLLIYGASSRAPGVPSRFSGSGSGTDFTLTISSLEPEDAATYYCQQYADSPITFGQGTKLEIKR
In turn, B2 returned a TGFb1 IC50 (SMAD3 phosphorylation in CMVICs, AlphaLISA) in assay [1] of 0.425 µg/mL. For the same molecule, the TGFb2 IC50 (SMAD3 phosphorylation in CMVICs, AlphaLISA) in assay [2] amounted to 0.223 µg/mL. The TGFb3 IC50 (SMAD3 phosphorylation in CMVICs, AlphaLISA) in assay [3] turned out to be 0.014 µg/mL. Moreover, the Kd in assay [4] turned out to be 3.54 nM; in assay [5], 2.99 nM; in assay [6], 3.57 nM.

B3: Felinized anti-TGFβ1,2,3 antibody VH2.1 - VL8 (antibody, V domains shown)
VH: QVLLVQSGADVRKPGASVKIFCKASGYTFTSNVISWVRQTPAQGFEWMGGVIPIVDIANYAQRFKGRLVLTADTSTNTAYMELRSLKSADTAVYYCASTLGLVLDAMDYWGQGSLVTVSS
VL: DIVMTQSPGSLAGSPGQQVTMNCRASQSLGSSYLAWYQQKPGQHPELLIYGASSRAPGVPDRFSGSGSGTDFTLTISNLQAEDVANYYCQQYADSPITFGQGTKLEIKR
As to B3, in assay [1], the TGFb1 IC50 (SMAD3 phosphorylation in CMVICs, AlphaLISA) came out at 0.266 µg/mL. In addition, the TGFb2 IC50 (SMAD3 phosphorylation in CMVICs, AlphaLISA) in assay [2] came to 0.031 µg/mL. The TGFb3 IC50 (SMAD3 phosphorylation in CMVICs, AlphaLISA) in assay [3] was determined as 0.124 µg/mL. Besides, the Kd in assay [4] amounted to 3.31 nM; in assay [5], 3.41 nM; in assay [6], 1.06 nM.

B4: Felinized anti-TGFβ1,2,3 antibody VH2.2 - VL7 (antibody, V domains shown)
VH: QVLLVQSGADVRKPGASVKIFCKASGYTFSSNVMHWVRQTPAQGFEWMGSVIPIVDIATYARRFQGRLVLTADTSTNTAYMELRSLKSADTAVYYCARTLGLVLDAMDYWGQGSLVTVSS
VL: DIVLTQPPSLSVNLGQTARITCRASQSLGSSYLAWYQQKPGQAPKLVTYGASSRAPGIPDRFSGTNSGITATLTISGARAEDEADYYCQQYADSPITFGQGTKLEIKR
The molecule B4 displayed a TGFb1 IC50 (SMAD3 phosphorylation in CMVICs, AlphaLISA) in assay [1] of 4.59 µg/mL. The molecule also showed a TGFb2 IC50 (SMAD3 phosphorylation in CMVICs, AlphaLISA) in assay [2] of 20.6 µg/mL. This molecule also came in with a TGFb3 IC50 (SMAD3 phosphorylation in CMVICs, AlphaLISA) in assay [3] of 2.2 µg/mL. The Kd in assay [4] was 4.95 nM; in assay [5], 2.16 nM; in assay [6], 3.52 nM.

B5: Felinized anti-TGFβ1,2,3 antibody VH3.2 - VL3 (antibody, V domains shown)
VH: DVQLVESGGDLVKPGGSLRLTCVASGYTFSSNVMHWVRQAPGKGLQWVAYVIPIVDIAYYADSVKGRFTISIDNSKNTLYLQMNSLKTEDTATYYCARTLGLVLDAMDYWGQGTLVTVSS
VL: EIQMTQSPSSLSASPGDRVTITCRASQSLGSSYLAWYQQKPGKVPKLLIYGASSRAPGVPSRFSGSGSGTDFTLTISSLEPEDAATYYCQQYADSPITFGQGTKLEIKR
B5 displayed a TGFb1 IC50 (SMAD3 phosphorylation in CMVICs, AlphaLISA) in assay [1] of 0.132 µg/mL. In assay [2], this molecule yielded a TGFb2 IC50 (SMAD3 phosphorylation in CMVICs, AlphaLISA) of 0.14 µg/mL. Moreover, the TGFb3 IC50 (SMAD3 phosphorylation in CMVICs, AlphaLISA) in assay [3] turned out to be 0.023 µg/mL. In addition, the Kd in assay [4] was 0.66 nM; in assay [5] it was 0.751 nM; in assay [6], 0.144 nM.

B6: Felinized anti-TGFβ1,2,3 antibody VH3.2 - VL7 (antibody, V domains shown)
VH: DVQLVESGGDLVKPGGSLRLTCVASGYTFSSNVMHWVRQAPGKGLQWVAYVIPIVDIAYYADSVKGRFTISIDNSKNTLYLQMNSLKTEDTATYYCARTLGLVLDAMDYWGQGTLVTVSS
VL: DIVLTQPPSLSVNLGQTARITCRASQSLGSSYLAWYQQKPGQAPKLVTYGASSRAPGIPDRFSGTNSGITATLTISGARAEDEADYYCQQYADSPITFGQGTKLEIKR
As for B6, in assay [1], the TGFb1 IC50 (SMAD3 phosphorylation in CMVICs, AlphaLISA) is 0.139 µg/mL. The molecule further returned a TGFb2 IC50 (SMAD3 phosphorylation in CMVICs, AlphaLISA) in assay [2] of 0.048 µg/mL. Further, the TGFb3 IC50 (SMAD3 phosphorylation in CMVICs, AlphaLISA) in assay [3] was found to be 0.018 µg/mL. Further, the values for the Kd in assay [4], in assay [5] and in assay [6] were 0.857 nM, 0.589 nM and 0.434 nM, respectively.

B7: Felinized anti-TGFβ1,2,3 antibody VH3.2 - VL1 (antibody, V domains shown)
VH: DVQLVESGGDLVKPGGSLRLTCVASGYTFSSNVMHWVRQAPGKGLQWVAYVIPIVDIAYYADSVKGRFTISIDNSKNTLYLQMNSLKTEDTATYYCARTLGLVLDAMDYWGQGTLVTVSS
VL: ETVLTQSPGTLSLSPGERATLSCRASQSLGSSYLAWYQQKPGQAPRLLIYGASSRAPGIPDRFSGSGSGTDFTLTISRLEPEDFAVYYCQQYADSPITFGQGTKLEIKR
B7: the TGFb1 IC50 (SMAD3 phosphorylation in CMVICs, AlphaLISA) in assay [1] was 0.797 µg/mL. This molecule also returned a TGFb2 IC50 (SMAD3 phosphorylation in CMVICs, AlphaLISA) in assay [2] of 0.19 µg/mL. In assay [3], this molecule yielded a TGFb3 IC50 (SMAD3 phosphorylation in CMVICs, AlphaLISA) of 0.053 µg/mL. Also, the Kd turned out to be 0.333 nM in assay [4], 1.84 nM in assay [5] and 0.0051 nM in assay [6].

B8: Felinized anti-TGFβ1,2,3 antibody VH3.2 - VL8 (antibody, V domains shown)
VH: DVQLVESGGDLVKPGGSLRLTCVASGYTFSSNVMHWVRQAPGKGLQWVAYVIPIVDIAYYADSVKGRFTISIDNSKNTLYLQMNSLKTEDTATYYCARTLGLVLDAMDYWGQGTLVTVSS
VL: DIVMTQSPGSLAGSPGQQVTMNCRASQSLGSSYLAWYQQKPGQHPELLIYGASSRAPGVPDRFSGSGSGTDFTLTISNLQAEDVANYYCQQYADSPITFGQGTKLEIKR
On to B8, for which, in assay [1], the TGFb1 IC50 (SMAD3 phosphorylation in CMVICs, AlphaLISA) was 0.072 µg/mL. Also, in assay [2], the TGFb2 IC50 (SMAD3 phosphorylation in CMVICs, AlphaLISA) was determined as 0.037 µg/mL. In assay [3], this molecule came in with a TGFb3 IC50 (SMAD3 phosphorylation in CMVICs, AlphaLISA) of 0.008 µg/mL. For the same molecule, the Kd in assay [4] turned out to be 0.971 nM; in assay [5], 2.13 nM; in assay [6] it was 0.0466 nM.

B9: Felinized anti-TGFβ1,2,3 antibody VH3.8 - VL7 (antibody, V domains shown)
VH: QVQLVQSGAEVKKPGSSVKVSCKASGYTFSSNVISWVRQAPGKGLQWVAGVIPIVDIANYAQRFKGRFTISIDNSKNTLYLQMNSLKTEDTATYYCASTLGLVLDAMDYWGQGTLVTVSS
VL: DIVLTQPPSLSVNLGQTARITCRASQSLGSSYLAWYQQKPGQAPKLVTYGASSRAPGIPDRFSGTNSGITATLTISGARAEDEADYYCQQYADSPITFGQGTKLEIKR
In turn, B9 gave a TGFb1 IC50 (SMAD3 phosphorylation in CMVICs, AlphaLISA) in assay [1] of 1.36 µg/mL. Also, in assay [2], the TGFb2 IC50 (SMAD3 phosphorylation in CMVICs, AlphaLISA) came to 2.67 µg/mL. In assay [3], this molecule yielded a TGFb3 IC50 (SMAD3 phosphorylation in CMVICs, AlphaLISA) of 0.204 µg/mL. For the same molecule, the Kd in assay [4] is 3.07 nM; in assay [5], 1.94 nM; in assay [6] it was 0.635 nM.
